Test results published in PMC9482650, “Quantitative fragmentomics allow affinity mapping of interactomes” (Nature Communications, 2022).

T1: DFNB31_1, Q9P202
T1 sequence (Q9P202 135-233, limits assumed, looked up): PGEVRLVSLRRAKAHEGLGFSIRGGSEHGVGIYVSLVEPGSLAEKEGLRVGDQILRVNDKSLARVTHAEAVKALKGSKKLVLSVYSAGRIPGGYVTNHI

T2: APBA2_1, Q99767
T2 sequence (Q99767 563-664, limits assumed, looked up): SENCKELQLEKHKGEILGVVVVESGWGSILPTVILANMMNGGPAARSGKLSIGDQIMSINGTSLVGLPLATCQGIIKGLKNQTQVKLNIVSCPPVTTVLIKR

T3: TIAM2, Q8IVF5
T3 sequence (Q8IVF5 885-986, limits assumed, looked up): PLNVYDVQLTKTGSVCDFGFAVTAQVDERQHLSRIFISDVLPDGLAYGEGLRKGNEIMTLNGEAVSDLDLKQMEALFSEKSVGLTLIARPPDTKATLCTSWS

T4: NHERF3_1, Q5T2W1
T4 sequence (Q5T2W1 4-100, limits assumed, looked up): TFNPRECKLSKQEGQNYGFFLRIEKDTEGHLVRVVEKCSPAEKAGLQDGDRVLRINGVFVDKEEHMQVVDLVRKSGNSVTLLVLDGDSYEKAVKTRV

T5: PDZD7_3, Q9H5P4
T5 sequence (Q9H5P4 857-944, limits assumed, looked up): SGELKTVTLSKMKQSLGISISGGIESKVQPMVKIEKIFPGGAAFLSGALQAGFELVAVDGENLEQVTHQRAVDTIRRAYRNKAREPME

T6: SIPA1L2, Q9P2F8
T6 sequence (Q9P2F8 945-1036, limits assumed, looked up): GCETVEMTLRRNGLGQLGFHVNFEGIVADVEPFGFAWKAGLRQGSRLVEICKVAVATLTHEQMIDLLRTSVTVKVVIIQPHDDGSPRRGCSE

T7: LRRC7, Q96NW7
T7 sequence (Q96NW7 1440-1537, limits assumed, looked up): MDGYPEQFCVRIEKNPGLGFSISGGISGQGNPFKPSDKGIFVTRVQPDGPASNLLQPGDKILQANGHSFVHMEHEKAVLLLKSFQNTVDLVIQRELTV

T8: LNX2_3, Q8N448
T8 sequence (Q8N448 463-564, limits assumed, looked up): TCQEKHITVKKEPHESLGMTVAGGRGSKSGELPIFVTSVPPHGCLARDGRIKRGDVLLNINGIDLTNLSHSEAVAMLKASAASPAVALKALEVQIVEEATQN

T9: HTRA4, P83105
T9 sequence (P83105 378-476, limits assumed, looked up): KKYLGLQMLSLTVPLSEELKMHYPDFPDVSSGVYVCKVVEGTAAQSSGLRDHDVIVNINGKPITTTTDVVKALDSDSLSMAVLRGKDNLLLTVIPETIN

T10: TJP3_3, O95049
T10 sequence (O95049 375-456, limits assumed, looked up): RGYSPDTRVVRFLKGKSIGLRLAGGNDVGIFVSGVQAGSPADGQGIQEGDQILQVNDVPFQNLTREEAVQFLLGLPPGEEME

T11: DFNB31_2, Q9P202
T11 sequence (Q9P202 274-371, limits assumed, looked up): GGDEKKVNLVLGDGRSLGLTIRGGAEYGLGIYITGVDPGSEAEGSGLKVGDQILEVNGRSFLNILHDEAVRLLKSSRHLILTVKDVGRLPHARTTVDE

T12: GRIP1_5, Q9Y3R0
T12 sequence (Q9Y3R0 568-668, limits assumed, looked up): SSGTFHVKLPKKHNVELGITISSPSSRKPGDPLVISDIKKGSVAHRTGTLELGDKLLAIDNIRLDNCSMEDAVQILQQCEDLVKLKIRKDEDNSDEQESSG

T13: APBA1_2, Q02410
T13 sequence (Q02410 742-832, limits assumed, looked up): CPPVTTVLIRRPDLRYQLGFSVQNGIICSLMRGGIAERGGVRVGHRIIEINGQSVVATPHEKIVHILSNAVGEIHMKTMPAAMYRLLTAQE


These binders were tested against CASK, O14936 (assay: holdup assay). Details: plain residues with an end cap or a label only (N-terminal biotin on a linker: ado-ado).
Chain of CASK, O14936 (O14936 487-570): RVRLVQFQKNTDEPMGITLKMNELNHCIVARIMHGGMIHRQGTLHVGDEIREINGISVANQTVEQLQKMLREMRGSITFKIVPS
Parameters: key: below the threshold = too weak to quantify, mostly under pKd 3.1 to 4
In the case of QELLEYETTV [XKR7, Q5GH72], the pKd is reported as “below the threshold”. LRYARPADAL [PPP1R3G, B7ZBB8] was tested, and the pKd was “below the threshold”.

These binders were tested against T1, DFNB31_1, Q9P202 (assay: holdup assay). Details: plain residues with an end cap or a label only (N-terminal biotin on a linker: ado-ado).
Parameters: key: below the threshold = too weak to quantify, mostly under pKd 3.1 to 4
QELLEYETTV [XKR7, Q5GH72] was tested, and the pKd was 4.2. For LRYARPADAL [PPP1R3G, B7ZBB8], the pKd was “below the threshold”.

What follows are binders tested against DLG1_1, Q12959 (assay: holdup assay). Details: plain residues with an end cap or a label only (N-terminal biotin on a linker: ado-ado).
Parameters: key: below the threshold = too weak to quantify, mostly under pKd 3.1 to 4
QELLEYETTV [XKR7, Q5GH72] was tested, and the pKd was 4.96. In the case of LRYARPADAL [PPP1R3G, B7ZBB8], the pKd is reported as “below the threshold”.

These binders were tested against GIPC2, Q8TF65 (assay: holdup assay). Details: plain residues with an end cap or a label only (N-terminal biotin on a linker: ado-ado).
Chain of GIPC2, Q8TF65 (Q8TF65 112-203): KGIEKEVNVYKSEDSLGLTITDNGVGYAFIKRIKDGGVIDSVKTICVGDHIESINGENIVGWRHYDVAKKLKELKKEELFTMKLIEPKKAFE
Parameters: key: below the threshold = too weak to quantify, mostly under pKd 3.1 to 4
QELLEYETTV [XKR7, Q5GH72] gave a pKd of 4.38. With LRYARPADAL [PPP1R3G, B7ZBB8] the pKd was “below the threshold”.

What follows are binders tested against GRIP2_6, Q9C0E4 (assay: holdup assay). Details: plain residues with an end cap or a label only (N-terminal biotin on a linker: ado-ado).
Chain of GRIP2_6, Q9C0E4 (Q9C0E4 648-740): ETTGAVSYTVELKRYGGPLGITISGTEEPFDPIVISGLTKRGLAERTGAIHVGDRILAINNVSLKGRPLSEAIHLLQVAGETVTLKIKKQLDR
Parameters: key: below the threshold = too weak to quantify, mostly under pKd 3.1 to 4
QELLEYETTV [XKR7, Q5GH72] was tested, and the pKd was 3.55. With LRYARPADAL [PPP1R3G, B7ZBB8] the pKd was “below the threshold”.

Each binder was assayed against SCRIB_1, Q14160 (assay: holdup assay). Details: plain residues with an end cap or a label only (N-terminal biotin on a linker: ado-ado).
Chain of SCRIB_1, Q14160 (Q14160 718-814): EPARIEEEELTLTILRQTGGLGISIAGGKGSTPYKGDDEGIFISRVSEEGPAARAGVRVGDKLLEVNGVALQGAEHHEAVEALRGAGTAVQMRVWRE
Parameters: key: below the threshold = too weak to quantify, mostly under pKd 3.1 to 4
With QELLEYETTV [XKR7, Q5GH72] the pKd was 4.41. With LRYARPADAL [PPP1R3G, B7ZBB8] the pKd was “below the threshold”.

The binders below were run against T2, APBA2_1, Q99767 (assay: holdup assay). Details: plain residues with an end cap or a label only (N-terminal biotin on a linker: ado-ado).
Parameters: key: below the threshold = too weak to quantify, mostly under pKd 3.1 to 4
In the case of QELLEYETTV [XKR7, Q5GH72], the pKd is reported as “below the threshold”. In the case of LRYARPADAL [PPP1R3G, B7ZBB8], the pKd is reported as “below the threshold”.

The binders below were run against NHERF4_2, Q86UT5 (assay: holdup assay). Details: plain residues with an end cap or a label only (N-terminal biotin on a linker: ado-ado).
Chain of NHERF4_2, Q86UT5 (Q86UT5 220-308): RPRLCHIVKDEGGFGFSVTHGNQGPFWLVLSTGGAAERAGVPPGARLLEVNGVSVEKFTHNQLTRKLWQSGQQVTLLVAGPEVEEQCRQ
Parameters: key: below the threshold = too weak to quantify, mostly under pKd 3.1 to 4
With QELLEYETTV [XKR7, Q5GH72] the pKd was “below the threshold”. In the case of LRYARPADAL [PPP1R3G, B7ZBB8], the pKd is reported as “below the threshold”.

What follows are binders tested against T3, TIAM2, Q8IVF5 (assay: holdup assay). Details: plain residues with an end cap or a label only (N-terminal biotin on a linker: ado-ado).
Parameters: key: below the threshold = too weak to quantify, mostly under pKd 3.1 to 4
QELLEYETTV [XKR7, Q5GH72] was tested, and the pKd was “below the threshold”. With LRYARPADAL [PPP1R3G, B7ZBB8] the pKd was “below the threshold”.

The binders below were run against T4, NHERF3_1, Q5T2W1 (assay: holdup assay). Details: plain residues with an end cap or a label only (N-terminal biotin on a linker: ado-ado).
Parameters: key: below the threshold = too weak to quantify, mostly under pKd 3.1 to 4
In the case of QELLEYETTV [XKR7, Q5GH72], the pKd is reported as 3.93. LRYARPADAL [PPP1R3G, B7ZBB8] was tested, and the pKd was 3.9.

Each binder was assayed against T5, PDZD7_3, Q9H5P4 (assay: holdup assay). Details: plain residues with an end cap or a label only (N-terminal biotin on a linker: ado-ado).
Parameters: key: below the threshold = too weak to quantify, mostly under pKd 3.1 to 4
QELLEYETTV [XKR7, Q5GH72] gave a pKd of 4.85. With LRYARPADAL [PPP1R3G, B7ZBB8] the pKd was “below the threshold”.

Each binder was assayed against T6, SIPA1L2, Q9P2F8 (assay: holdup assay). Details: plain residues with an end cap or a label only (N-terminal biotin on a linker: ado-ado).
Parameters: key: below the threshold = too weak to quantify, mostly under pKd 3.1 to 4
In the case of QELLEYETTV [XKR7, Q5GH72], the pKd is reported as “below the threshold”. For LRYARPADAL [PPP1R3G, B7ZBB8], the pKd was “below the threshold”.

The binders below were run against T7, LRRC7, Q96NW7 (assay: holdup assay). Details: plain residues with an end cap or a label only (N-terminal biotin on a linker: ado-ado).
Parameters: key: below the threshold = too weak to quantify, mostly under pKd 3.1 to 4
QELLEYETTV [XKR7, Q5GH72] was tested, and the pKd was “below the threshold”. With LRYARPADAL [PPP1R3G, B7ZBB8] the pKd was “below the threshold”.

What follows are binders tested against T8, LNX2_3, Q8N448 (assay: holdup assay). Details: plain residues with an end cap or a label only (N-terminal biotin on a linker: ado-ado).
Parameters: key: below the threshold = too weak to quantify, mostly under pKd 3.1 to 4
QELLEYETTV [XKR7, Q5GH72] was tested, and the pKd was “below the threshold”. With LRYARPADAL [PPP1R3G, B7ZBB8] the pKd was “below the threshold”.

The binders below were run against T9, HTRA4, P83105 (assay: holdup assay). Details: plain residues with an end cap or a label only (N-terminal biotin on a linker: ado-ado).
Parameters: key: below the threshold = too weak to quantify, mostly under pKd 3.1 to 4
For QELLEYETTV [XKR7, Q5GH72], the pKd was “below the threshold”. Work on LRYARPADAL [PPP1R3G, B7ZBB8] yielded a pKd of 3.92.

What follows are binders tested against Inadl_3, Q8NI35 (assay: holdup assay). Details: plain residues with an end cap or a label only (N-terminal biotin on a linker: ado-ado).
Chain of Inadl_3, Q8NI35 (Q8NI35 359-469): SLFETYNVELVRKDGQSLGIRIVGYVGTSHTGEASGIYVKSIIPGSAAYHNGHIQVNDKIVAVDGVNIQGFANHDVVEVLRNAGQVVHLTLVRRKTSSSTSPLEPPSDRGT
Parameters: key: below the threshold = too weak to quantify, mostly under pKd 3.1 to 4
QELLEYETTV [XKR7, Q5GH72] showed a pKd of 4.63. With LRYARPADAL [PPP1R3G, B7ZBB8] the pKd was “below the threshold”.

The binders below were run against MAGI2_6, Q86UL8 (assay: holdup assay). Details: plain residues with an end cap or a label only (N-terminal biotin on a linker: ado-ado).
Chain of MAGI2_6, Q86UL8 (Q86UL8 1141-1229): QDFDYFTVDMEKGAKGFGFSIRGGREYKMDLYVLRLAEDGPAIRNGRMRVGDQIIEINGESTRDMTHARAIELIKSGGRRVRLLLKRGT
Parameters: key: below the threshold = too weak to quantify, mostly under pKd 3.1 to 4
QELLEYETTV [XKR7, Q5GH72] gave a pKd of 4.45. LRYARPADAL [PPP1R3G, B7ZBB8] was tested, and the pKd was “below the threshold”.

These binders were tested against NHERF2_2, Q15599 (assay: holdup assay). Details: plain residues with an end cap or a label only (N-terminal biotin on a linker: ado-ado).
Chain of NHERF2_2, Q15599 (Q15599 142-238): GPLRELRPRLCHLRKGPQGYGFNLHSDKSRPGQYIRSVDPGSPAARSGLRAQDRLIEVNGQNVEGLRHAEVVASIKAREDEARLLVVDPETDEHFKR
Parameters: key: below the threshold = too weak to quantify, mostly under pKd 3.1 to 4
Binder QELLEYETTV [XKR7, Q5GH72] has a pKd of 4.33. For LRYARPADAL [PPP1R3G, B7ZBB8], the pKd was “below the threshold”.

Each binder was assayed against T10, TJP3_3, O95049 (assay: holdup assay). Details: plain residues with an end cap or a label only (N-terminal biotin on a linker: ado-ado).
Parameters: key: below the threshold = too weak to quantify, mostly under pKd 3.1 to 4
For QELLEYETTV [XKR7, Q5GH72], the pKd was 3.5. LRYARPADAL [PPP1R3G, B7ZBB8] was tested, and the pKd was “below the threshold”.

Each binder was assayed against T11, DFNB31_2, Q9P202 (assay: holdup assay). Details: plain residues with an end cap or a label only (N-terminal biotin on a linker: ado-ado).
Parameters: key: below the threshold = too weak to quantify, mostly under pKd 3.1 to 4
For QELLEYETTV [XKR7, Q5GH72], the pKd was “below the threshold”. With LRYARPADAL [PPP1R3G, B7ZBB8] the pKd was “below the threshold”.

These binders were tested against DLG1_2, Q12959 (assay: holdup assay). Details: plain residues with an end cap or a label only (N-terminal biotin on a linker: ado-ado).
Parameters: key: below the threshold = too weak to quantify, mostly under pKd 3.1 to 4
Binder QELLEYETTV [XKR7, Q5GH72] has a pKd of 5.14. LRYARPADAL [PPP1R3G, B7ZBB8] was tested, and the pKd was 3.53.

What follows are binders tested against MAST1, Q9Y2H9 (assay: holdup assay). Details: plain residues with an end cap or a label only (N-terminal biotin on a linker: ado-ado).
Chain of MAST1, Q9Y2H9 (Q9Y2H9 962-1065): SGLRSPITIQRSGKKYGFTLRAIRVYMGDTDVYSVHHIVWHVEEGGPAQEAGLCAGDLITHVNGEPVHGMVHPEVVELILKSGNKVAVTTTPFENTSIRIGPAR
Parameters: key: below the threshold = too weak to quantify, mostly under pKd 3.1 to 4
QELLEYETTV [XKR7, Q5GH72] gave a pKd of 4.97. LRYARPADAL [PPP1R3G, B7ZBB8] gave a pKd of 3.73.

The binders below were run against DLG1_3, Q12959 (assay: holdup assay). Details: plain residues with an end cap or a label only (N-terminal biotin on a linker: ado-ado).
Parameters: key: below the threshold = too weak to quantify, mostly under pKd 3.1 to 4
Binder QELLEYETTV [XKR7, Q5GH72] has a pKd of 4.09. LRYARPADAL [PPP1R3G, B7ZBB8] was tested, and the pKd was “below the threshold”.

The binders below were run against T12, GRIP1_5, Q9Y3R0 (assay: holdup assay). Details: plain residues with an end cap or a label only (N-terminal biotin on a linker: ado-ado).
Parameters: key: below the threshold = too weak to quantify, mostly under pKd 3.1 to 4
In the case of QELLEYETTV [XKR7, Q5GH72], the pKd is reported as “below the threshold”. For LRYARPADAL [PPP1R3G, B7ZBB8], the pKd was “below the threshold”.

What follows are binders tested against T13, APBA1_2, Q02410 (assay: holdup assay). Details: plain residues with an end cap or a label only (N-terminal biotin on a linker: ado-ado).
Parameters: key: below the threshold = too weak to quantify, mostly under pKd 3.1 to 4
Binder QELLEYETTV [XKR7, Q5GH72] has a pKd of 3.65. Binder LRYARPADAL [PPP1R3G, B7ZBB8] has a pKd of 3.82.
